Results reported in publication PMC8268110.
Values joined by “and” are separate entries in the source; they are usually repeats but may differ in a detail not shown here. Equal values may be shown once.

Key:
[1] = target: Nrl1 (full length), BACTH fusion (S. pombe) (UniProt O42975); assay: two-hybrid; bacterial two-hybrid (BACTH) in E. coli BTH101; full-length ORFs in pUT18C and pKT25, both combinations; X-gal/IPTG plates and β-galactosidase activity assay at 28 °C in Miller units; eight biological replicates
[2] = target: Nrl1(C-term), C-terminal region (493–972 aa), BACTH fusion (S. pombe) (UniProt O42975); assay: two-hybrid; bacterial two-hybrid (BACTH) in E. coli BTH101; Nrl1 or its truncations in pUT18C, RNA-processing factors in pKT25; β-galactosidase activity assay at 28 °C in Miller units; eight biological replicates
[3] = target: Nrl1 (full length), BACTH fusion (S. pombe) (UniProt O42975); assay: as above
[4] = target: Nrl1(N-term + NRDE-2), N-terminus with NRDE2 domain (1–492 aa), BACTH fusion (S. pombe) (UniProt O42975); assay: as above
[5] = target: Nrl1(N-term), N-terminal region (1–159 aa), BACTH fusion (S. pombe) (UniProt O42975); assay: as above

β-galactosidase activity (Miller units) [1]	β-galactosidase activity (Miller units) [2] [Miller units]	β-galactosidase activity (Miller units) [3] [Miller units]	β-galactosidase activity (Miller units) [4] [Miller units]	β-galactosidase activity (Miller units) [5] [Miller units]	Substance
977 Miller units and 1090 Miller units	708	1080	–	–	Ctr1, BACTH fusion (natural protein)
739 Miller units and 467 Miller units	495	583	–	–	Ntr2, BACTH fusion (natural protein)
1440 Miller units and 1450 Miller units	–	1460	1560	1510	Mtl1, BACTH fusion (natural protein)
